Reference: patent US8076452 (dated 2011)

Molecular target: T1, streptavidin (UniProt P22629 37-163)
T1 construct: also called peroxidase-labeled streptavidin; streptavidin-Sepharose
Assay: SPR (BiacoreX, NTA chip), fusion protein immobilised, streptavidin injected
Description: The measurements of the dissociation constant were performed with a BiacoreX system and the sensor chip NTA of the company Biacore. The proteins generated during the expression described in Example 1 were investigated, i.e. FAB proteins, which had at the N terminus a peptide consisting of 15 amino acids as fusion partners and at the C terminus 6 histidines, which were needed for the immobilization on the sensor chip. The binding affinity of the proteins generated during the expression to streptavidin described in Example 1 was measured in the Biacore device according to manufacturer's instructions. The protein to be investigated is on the sensor chip, and a streptavidin solution having a defined concentration is sprayed in. The interaction (binding) between the two molecules is measured by the device and quantified as so-called resonance units (RU). For the measurement, the buffers specified by the manufacturer were used.

T1 sequence (P22629 37-163 limits assumed): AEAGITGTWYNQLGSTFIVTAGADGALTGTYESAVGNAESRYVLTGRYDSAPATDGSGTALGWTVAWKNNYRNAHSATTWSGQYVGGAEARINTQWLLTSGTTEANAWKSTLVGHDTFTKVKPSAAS

Row | Binder | RU at 500 nM streptavidin | RU at 2 µM streptavidin
1 | FAB protein (FABP from bovine hearts) with N-terminal 15-amino-acid peptide motif 3 and C-terminal His-tag of 6 histidines (other) DVEAWLDERVPLVETFVGTWKLVDSKNFDDYMKSLGVGFATRQVGNMTKPTTIIEVNGDTVIIKTQSTFKNTEISFKLGVEFDETTADDRKVKSIVTLDGGKLVHVQKWNGQETSLVREMVDGKLILTLTHGTAVCTRTYEKQAHHHHHH | 786 RU | 946 RU
2 | FAB protein (FABP from bovine hearts) with N-terminal 15-amino-acid peptide motif 4 and C-terminal His-tag of 6 histidines (other) DVEAWIADPAVHFTTFVGTWKLVDSKNFDDYMKSLGVGFATRQVGNMTKPTTIIEVNGDTVIIKTQSTFKNTEISFKLGVEFDETTADDRKVKSIVTLDGGKLVHVQKWNGQETSLVREMVDGKLILTLTHGTAVCTRTYEKQAHHHHHH | 478 RU | 644 RU
3 | FAB protein (FABP from bovine hearts) with N-terminal 15-amino-acid peptide motif 1 and C-terminal His-tag of 6 histidines (other) DLYDIDRNWVGHPQGFVGTWKLVDSKNFDDYMKSLGVGFATRQVGNMTKPTTIIEVNGDTVIIKTQSTFKNTEISFKLGVEFDETTADDRKVKSIVTLDGGKLVHVQKWNGQETSLVREMVDGKLILTLTHGTAVCTRTYEKQAHHHHHH | 62 RU | 233 RU
